# Data taken from US20240174744A1 (SCIRHOM, published 2024).
# T1: human iRhom2 (inactive rhomboid protein 2, isoform 1), endogenously expressed on human cells (human, UniProt Q6PJF5 1-856)
# T1 construct: also called RHBDF2; NP_078875.4
# T1 sequence: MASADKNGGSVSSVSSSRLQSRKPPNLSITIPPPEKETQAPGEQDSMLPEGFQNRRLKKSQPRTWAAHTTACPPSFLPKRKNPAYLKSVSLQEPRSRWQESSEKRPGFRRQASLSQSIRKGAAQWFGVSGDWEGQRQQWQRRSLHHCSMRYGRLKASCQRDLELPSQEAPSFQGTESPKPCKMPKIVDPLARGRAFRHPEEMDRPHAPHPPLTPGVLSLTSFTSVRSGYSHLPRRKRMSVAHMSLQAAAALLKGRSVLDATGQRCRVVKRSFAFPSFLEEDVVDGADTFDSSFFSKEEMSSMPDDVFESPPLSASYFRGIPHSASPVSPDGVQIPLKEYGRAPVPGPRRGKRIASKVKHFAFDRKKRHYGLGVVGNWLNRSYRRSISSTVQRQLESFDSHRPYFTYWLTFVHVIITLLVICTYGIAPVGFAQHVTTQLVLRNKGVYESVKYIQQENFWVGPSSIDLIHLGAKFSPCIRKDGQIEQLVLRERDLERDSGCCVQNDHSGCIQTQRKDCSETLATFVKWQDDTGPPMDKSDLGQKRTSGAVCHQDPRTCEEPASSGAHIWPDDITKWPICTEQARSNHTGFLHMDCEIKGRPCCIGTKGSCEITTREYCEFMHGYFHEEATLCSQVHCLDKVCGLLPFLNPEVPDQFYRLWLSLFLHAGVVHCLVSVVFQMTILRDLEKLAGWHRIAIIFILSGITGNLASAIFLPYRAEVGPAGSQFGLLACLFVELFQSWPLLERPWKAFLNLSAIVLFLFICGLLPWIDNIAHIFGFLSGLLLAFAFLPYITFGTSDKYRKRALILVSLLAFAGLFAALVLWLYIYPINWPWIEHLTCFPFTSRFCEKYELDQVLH
# Molecular target: T1, human iRhom2 (inactive rhomboid protein …)
# Assay: indirect FACS scatchard analysis on THP-1 cells (endogenous iRhom2)
# Procedure: In brief, human THP-1 cells (American Type Culture Collection, USA) were harvested with 10 mM EDTA in PBS, washed and resuspended in FACS buffer (PBS, 3% FBS, 0.05% sodium azide), and seeded in Nunc U-bottom 96-well plates (Thermo Fisher Scientific, USA) at approximately 3×10⁵ cells per well. In order to pellet cells and remove supernatants, the plates were centrifuged at 1,500 rpm and 4° C. for 3 minutes. For primary staining, cells were resuspended in 100 μl per well of either FACS buffer alone (controls) or serial two-fold dilutions (in total 22 concentrations) of the purified antibodies 3, 5, 16, 22, 34, 42, 43, 44, 48, and 50 of the present disclosure in FACS buffer starting at 40 μg/ml and incubated on ice for 1 hour. Afterwards, plates were centrifuged at 1,500 rpm and 4° C. for 3 minutes and washed twice with 200 μl per well of FACS buffer. For secondary staining, cells were spun down and resuspended in 100 μl per well of PE-conjugated goat anti-mouse IgG F(ab′)2 detection fragment (Dianova, Germany) diluted 1:100 in FACS buffer. Protected from light, the cell suspensions were incubated on ice for 1 hour. Plates were then centrifuged at 1,500 rpm and 4° C. for 3 minutes and washed three times with 200 μl per well of FACS buffer. Finally, cells were resuspended in 150 μl per well of FACS buffer and analyzed using a BD Accuri™ C6 Plus flow cytometer (Becton Dickinson, Germany). Applying Prism8 software (GraphPad Sowtware, USA), the respective KD value for each of the antibodies of the present disclosure were calculated.
row,Binder,Kd [nM]
1,"antibody 34 (antibody, V domains shown, Mouse IgG, kappa light chain; also called clone #34; m34) VH: QVTLKESGPGILQPSQTLSLTCSFSGFSLSTFSLGVGWIRQSSGKGLEWLAHIWWDDEKYYNPALKSRLTISKDTSKNQVFLKIANVDAADTATYYCARAYYSKSYYALDYWGQGTSVTVSS VL: DIQMTQSPSSLSASLGERVSLTCRASQEISGYLSWLQQKPDGTIKRLIYAASTLDSGVPKRFSGSRSGSDYSLAISSLESEDFADYYCLQYANFPFTFGSGTKLEIK",1.94
2,"antibody 48 (antibody, V domains shown, Mouse IgG, kappa light chain; also called clone #48; purified antibody 48) VH: QVQLQQSGTELVRPGTSVKVSCKASGYAFTNYLIEWVKQRPGQGLEWIGVINPGSGFTKYNEKFKGKATLTADKSSSTVYMHLSSLTSEDSAVYFCARGLYRAMDYWGQGTSVTVSS VL: DIQMTQSPASQSASLGESVTITCLASQTIATWLAWYQQKPGKSPQLLIYGATTLADGVPSRFSGGGSGTKFSFKISSLQAEDFVSYYCQQLYSTPYTFGGGTKLEIK",1.73
3,"antibody 50 (antibody, V domains shown, Mouse IgG, kappa light chain; also called clone #50; purified antibody 50) VH: QVQLQQSGAELVRPGASVKVSCKASGYAFSNYLIEWVKQRPGQGLEWIGVINPGSGFTKYNEKFKGKATLTADKSSSTAYMQLSSLTSEDSAVYFCARGLYRAMDYWGQGTSVTVSS VL: DIQMTQSPASQSASLGESVTITCLASQTIGTWLAWYQQKPGKSPQLLIYAAASLADGVPSRFSGGGSGTKFSFKISSLQAEDFVNYYCQQIYSTPYTFGGGTKLEIK",1.43
4,"antibody 43 (antibody, V domains shown, Mouse IgG, kappa light chain; also called clone #43) VH: QVALKESGPGILQPSQTLSLTCSFSGFSLSTFGMGVGWIRQSSGKGLEWLANIWWDDDKYYNPALKSRLTISKDASKNQAFLKIANVDTADTATYYCARIGNYGSNYWYFDVWGTGTTVTVSS VL: QIVLTQSPAIMSASPGERVTMTCSANSRISYMYWYQQKPGSSPRLLIYDTSNLASGVPVRFSGSGSGTSYSLTISRMEAEDAATYNCQQWSSYPLTFGAGTKLELK",4.55
5,"antibody 5 (antibody, V domains shown, Mouse IgG, kappa light chain; also called clone #5; purified antibody 5) VH: QVTLKESGPGILQPSQTLSLTCSFSGFSLSTFGMGVGWIRQPSGKGLEWLAHIWWDDEKYYNSALKSRLTISKATSKNQAFLKIANVDTADTATYYCARISNYGSNYWYFNVWGTGTTVTVSS VL: QVVLTQSPALMSASPGEKVTMTCSAGSSVSCMYWYQQKPGSSPRVLIYDTSNLASGVPARFTGSGSGTSYSLTISRMEAEDAASYYCQQWNSYPLTFGAGTKLELK",3.35
6,"antibody 44 (antibody, V domains shown, Mouse IgG, kappa light chain; also called clone #44; m44) VH: QVTLKESGPGILQPSQTLSLTCSFSGFSLSTFGMGVGWIRQPSEKGLEWLAHIWWDDDKYYNPALKSRLTISKDTSKNQIFLKITNVDTAETATYYCSRIGNYGSNYWYFDVWGTGTTVTVSS VL: QIVLTQSPAVMSASPGEKVTMTCTASSSVYYMYWYQQTPGSSPRLLIYDTSNLASGVPVRFSGSGSGTSYSLTISRMEAEDAATYYCQQWNTYPLTFGAGTKLELK",0.44
7,"antibody 42 (antibody, V domains shown, Mouse IgG, kappa light chain; also called clone #42; m42) VH: QVTLKESGPGILQPSQTLSLTCSLSGFSLSTFGRGVGWIRQPSGKGLEWLAHIWWDDEKYYNPALKSRLTISKDTSKNQVFLRIANVDTADTATYYCARIQNYGSNYWYFDVWGTGTTVTVSS VL: LIVLTQSPAIMSASPGEKVTMTCGATSRISYMFWYQQKPGSSPRVLIYDTSNLASGVPVRFSGSGSGTSYSLTISRVEAEDVATYYCQQWNSYPLTFGAGTKLELK",1.9
8,"antibody 22 (antibody, V domains shown, Mouse IgG, kappa light chain; also called clone #22; m22) VH: QVTLKESGPGILQPSQTLSLTCSFSGFSLSTFGMGVGWIRQPSGKGLEWLAHIWWDDEKYYNSALKSRLTISKATSKNQVFLKIANVDTADTATYYCARISNYGSNYWYFNVWGTGTTVTVSS VL: QVVLTQSPALMSASPGEKVTMTCSAGSSVSYMYWYQQKPGSSPRVLIYDTSNLASGVPARFTGSGSGTSYSLTISRMEAEDAATYYCQQWNSYPLTFGAGTKLELK",2.04
9,"antibody 16 (antibody, V domains shown, Mouse IgG, kappa light chain; also called clone #16; m16) VH: QVTLKESGPGILQPSQTLSLTCSFSGFSLSTFALGVGWIRQPSGRGLEWLAHIWWDDDKYYNPALKSRLTISKDTSKNHVFLKIANVDTADTATYYCARITTYYYGMDYWGQGTSVTVSS VL: DIVLSQSPATLSVTPGDSVSLFCRASQSIGNHLHWYQQESHASPRLLIKYASQSISGIPSRFSGSGSGTDFTLSINSVETEDFGMYFCQQSYNWPLTFGAGTKLELK",0.34
10,"antibody 3 (antibody, V domains shown, Mouse IgG, kappa light chain; also called clone #3; purified antibody 3) VH: QVTLKESGPGILQPSQTLSLTCSFSGFSLTTFAMGIGWVRQPSGKGLEWLAHIWWDGEKYNNPVLKSRLTISKDTSKNQVFLRIANVDTPDTATYYCARISSIYYIIDNWGQGTSVTVSS VL: DIVLTQSPATLSVTPGHSVSLSCRASQSISNNLHWYQKKSHESPRLLIKYVSQSISGIPSRFSGSGSGTDFTLSINSVETEDFGMYFCQQSYNWPLTFGAGTKLELK",2.97
